These results are taken from article PMC7655986.

For this assay, the target named is T1, recombinant Fc-construct of the Dsg2 extracellular domain, Q14126.
T1 chain: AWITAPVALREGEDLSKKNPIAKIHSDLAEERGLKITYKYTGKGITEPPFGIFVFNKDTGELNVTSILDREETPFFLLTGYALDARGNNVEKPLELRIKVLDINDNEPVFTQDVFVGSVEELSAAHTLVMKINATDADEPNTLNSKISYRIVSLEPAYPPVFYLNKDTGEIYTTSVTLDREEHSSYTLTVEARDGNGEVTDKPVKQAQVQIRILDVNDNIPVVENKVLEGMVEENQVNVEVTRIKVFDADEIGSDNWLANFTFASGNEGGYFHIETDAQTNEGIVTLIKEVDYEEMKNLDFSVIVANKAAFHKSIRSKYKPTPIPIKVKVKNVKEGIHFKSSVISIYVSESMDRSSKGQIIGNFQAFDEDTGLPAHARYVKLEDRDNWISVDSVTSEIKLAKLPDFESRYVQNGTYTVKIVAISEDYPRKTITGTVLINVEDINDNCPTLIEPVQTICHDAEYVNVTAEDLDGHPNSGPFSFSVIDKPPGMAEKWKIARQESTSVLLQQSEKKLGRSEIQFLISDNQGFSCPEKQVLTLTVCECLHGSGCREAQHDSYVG
The assay can be described thus: atomic force microscopy (cell-free single-molecule force measurements); Dsg-Fc constructs (0.15 mg/ml) linked by a PEG linker to the cantilever tip and to mica sheets; Force Mapping mode; binding frequency and unbinding force; pulling speeds from 1 to 20 µm/s and modified Bells equation for the bond lifetime; 5 mM EGTA for 1 h lowered the binding frequency. The following applies: remark: other sources report otherwise.

B1: recombinant Fc-construct of the Dsg2 extracellular domain, Q14126 50-609 (Fc fusion)
chain: T1 chain
As for B1, the bond lifetime is 0.12 s.
